Results published in patent US20230192897A1 (NUMAB THERAPEUTICS, published 2023).

Tests used:
Fc tagged human PDL1 = target: T1, Fc tagged human PDL1 (human, UniProt Q9NZQ7 19-239); assay: SPR
T1 construct: Bought (Sino Biological, cat. 10084-H02H); captured on the SPR chip; also called PDL1-Fc chimeric protein
How it was run: (§1)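 Kinetics were fitted with a one-to-one Langmuir model to give apparent ka, kd and KD. Binders at 0.12-90 nM (three-fold series) flowed 3 min, with 10 min dissociation and 3 M MgCl₂ regeneration, on a Biacore T200.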

Fc tagged human CD137 = target: T2, Fc tagged human CD137 (human, UniProt Q07011 24-186); assay: SPR
T2 construct: also called CD137-Fc chimeric protein
How it was run: as §1

[1] = target: T3, CD137 on Jurkat NFkB reporter cells (human, UniProt Q07011 24-255); assay: cell-based or functional assay
human PDL1 on cells = human PDL1 on cells (human, UniProt Q9NZQ7 19-290); assay: cell-based or functional assay
biotinylated human PDL1 [2] = target: T4, biotinylated human PDL1 (human, UniProt Q9NZQ7 19-238, limits assumed, biotinylated); assay: competition ELISA B7.1/PDL1
T4 construct: also called biotinylated PDL1
How it was run: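 IC₅₀ was derived by four-parameter logistic fitting of reference-subtracted A450/690 readings. The signal came from streptavidin-polyHRP40 (10 ng/ml) with a 6-minute TMB reaction detecting biotinylated PDL1 bound to the plate. Pre-mixed samples sat 1 h at RT before a 1.5 h plate incubation.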

[3] = target: T3, CD137 on Jurkat NFkB reporter cells; assay: cell-based or functional assay; remark: listed apart in the source
biotinylated human PDL1 [4] = target: T4, biotinylated human PDL1; assay: competition ELISA PD-1/PDL1
human serum albumin = target: T5, human serum albumin (human, UniProt P02768 25-609); assay: SPR, SA coupled to chip, pH 5.5
T5 construct: Coupled directly to the CM5 chip; also called HSA; human SA
Protocol: Affinity of molecules to serum albumin (SA) of the different species was determined by SPR measurements using a Biacore T200 device (GE Healthcare). SA was directly coupled to a CM5 sensor chip (GE Healthcare) using amine coupling chemistry. […] The assay was run in a 1× PBS-Tween buffer at pH 5.5.

[5] = target: T6, mouse CD137-Fc chimeric protein (mouse, UniProt P20334 24-187, limits assumed); assay: SPR
T6 sequence (looked up): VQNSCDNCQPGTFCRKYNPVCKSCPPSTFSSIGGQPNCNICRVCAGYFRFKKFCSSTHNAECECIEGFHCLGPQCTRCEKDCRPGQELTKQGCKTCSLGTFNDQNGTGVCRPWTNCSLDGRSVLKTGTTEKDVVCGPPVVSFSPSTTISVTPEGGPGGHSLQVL
How it was run: as §1

B1: PRO1481 (other)
chain: DIQMTQSPASLSASVGDRVTITCQASQSIGTYLAWYQQKPGKPPKLLIYRAFILASGVPSRFSGSGSGTDFTLTISSLQPEDFATYYCQSNFYSDSTTIGPNAFGTGTKVTVLGGGGGSESQLVESGGGLVQPGGSLRLSCAASGFSFSANYYPCWVRQAPGKGLEWIGCIYGGSSDITYDANWTKGRFTISRDNSKNTVYLQMNSLRAEDTAVYFCARSAWYSGWGGDLWGPGTLVTVSSGGGGSGGGGSGGGGSGGGGSFQLTQSPSSLSASVGDRVTITCQASQSISNRLAWYQQKPGKPPKLLIYSASTLASGVPSRFSGSGSGTDFTLTISSLQPEDFATYYCQSTYYGNDGNAFGTGTKVTVLGGGGGSEVQLVESGGGLVQPGGSLRLSCAASGFSFNSDYWIYWVRQAPGKGLEWIASIYGGSSGNTQYASWAQGRFTISRDNSKNTVYLQMNSLRAEDTAVYFCARGYVDYGGATDLWGQGTLVTVSSGGGGSGGGGSIQMTQSPSSLSASVGDRVTITCQSSESVYSNNQLSWYQQKPGQPPKLLIYDASDLASGVPSRFSGSGSGTDFTLTISSLQPEDFATYYCAGGFSSSSDTAFGGGTKLTVLGGGGGSGGGGSGGGGSGGGGSEVQLVESGGGLVQPGGSLRLSCAASGFSLSSNAMGWVRQAPGKGLEYIGIISVGGFTYYASWAKGRFTISRDNSKNTVYLQMNSLRAEDTATYFCARDRHGGDSSGAFYLWGQGTLVTVSS
notes: trispecific scDb-scFv; also called 38-27-A11 sc03 scDb-i/37-20-B03 sc09.1 scDb-o/19-01-H04 sc03 scFv
Kd (Fc tagged human PDL1): 0.0092 nM
kon (Fc tagged human PDL1): 4.7e+06 M⁻¹ s⁻¹
Kd (Fc tagged human CD137): 0.33 nM
koff (Fc tagged human CD137): 0.0002 s⁻¹
kon (Fc tagged human CD137): 630000 M⁻¹ s⁻¹
IC50 (ng/ml) (EC50 in Table 16C), NFkB reporter, HCC827 + IFNg, 24 h, +HSA [1]: 5.51 ng/mL
rel. IC50 (PRO1186/test), 24 h [1]: 0.58 fold
IC50 (ng/ml), NF-AT potency assay, +HSA (human PDL1 on cells): 40.6 ng/mL
rel. IC50 (avelumab/test), +HSA (human PDL1 on cells): 0.92 fold
IC50 (biotinylated human PDL1 [2]): 10.1 ng/mL
rel. IC50 (IC50 avelumab/IC50 test) (biotinylated human PDL1 [2]): 1.45 fold
Area under the curve (calculated using PRO885 normalized data), first line (6 h by the order of the upper part) [3]: 292
Area under the curve (calculated using PRO885 normalized data), second line (24 h by the order of the upper part) [3]: 254
EC50 [ng/ml], NF-kB reporter, HCC827 + IFNg, +HSA, 6 h [3]: 7.22 ng/mL
IC10/EC90 ratio, first line (6 h by the order of the upper part) [3]: 23.7
IC10/EC90 ratio, second line (24 h by the order of the upper part) [3]: 41
Maximum NF-kB activation (rel. to PRO1186) [%], first line (6 h by the order of the upper part) [3]: 147%
Maximum NF-kB activation (rel. to PRO1186) [%], second line (24 h by the order of the upper part) [3]: 117%
rel. Area under the curve (AUCsample/AUCPRO1186), first line (6 h by the order of the upper part) [3]: 1.37 fold
rel. Area under the curve (AUCsample/AUCPRO1186), second line (24 h by the order of the upper part) [3]: 1 fold
rel. EC50 (EC50, PRO1186/EC50, sample), NF-kB reporter, 6 h [3]: 1.04 fold
rel. EC50 (EC50, PRO1186/EC50, sample), NF-kB reporter, 24 h [3]: 0.58 fold
rel. IC10/EC90 (ratio of sample/ratio of PRO1186), first line (6 h by the order of the upper part) [3]: 1.71 fold
rel. IC10/EC90 (ratio of sample/ratio of PRO1186), second line (24 h by the order of the upper part) [3]: 5.72 fold
IC50 (biotinylated human PDL1 [4]): 2.69 ng/mL
rel. IC50 (IC50 avelumab/IC50 test) (biotinylated human PDL1 [4]): 0.84 fold

B2: PRO1430 (other)
chain: DIQMTQSPSSLSASVGDRVTITCQASQSIGTYLAWYQQKPGKAPKLLIYRAFILASGVPSRFSGSGSGTDFTLTISSLQPEDFATYYCQSNFYSDSTTIGPNAFGTGTKVTVLGGGGGSEVQLVESGGGLVQPGGSLRLSCAASGFSFSNSYWICWVRQAPGKCLEWIGCTFVGSSDSTYYANWAKGRFTISRDNSKNTVYLQMNSLRAEDTAVYYCARHPSDAVYGYANNLWGQGTLVTVSSGGGGSGGGGSGGGGSGGGGSIQMTQSPSSLSASVGDRVTITCQASQSINNVLAWYQQKPGKAPKLLIYRASTLASGVPSRFSGSGSGTDFTLTISSLQPEDFATYYCQSSYGNYGDFGCGTKVTVLGGGGGSQVQLQESGPGLVKPSETLSLTCKVSGFSFNSDYWIYWIRQPPGKGLEWIGSIYGGSSGNTQYASWAQGRVTISVDSSKNQFSLKLSSVTAADTAVYYCARGYVDYGGATDLWGQGTLVTVSSGGGGSGGGGSIQMTQSPSSLSASVGDRVTITCQSSESVYSNNQLSWYQQKPGQPPKLLIYDASDLASGVPSRFSGSGSGTDFTLTISSLQPEDFATYYCAGGFSSSSDTAFGGGTKLTVLGGGGGSGGGGSGGGGSGGGGSEVQLVESGGGLVQPGGSLRLSCAASGFSLSSNAMGWVRQAPGKGLEYIGIISVGGFTYYASWAKGRFTISRDNSKNTVYLQMNSLRAEDTATYFCARDRHGGDSSGAFYLWGQGTLVTVSS
notes: trispecific scDb-scFv; also called 38-02-A04 sc13 scDb-i/37-20-B03 sc01 scDb-o/19-01-H04 sc03 scFv
Kd (Fc tagged human PDL1): 0.0045 nM
Kd (Fc tagged human CD137): 1.5 nM
koff (Fc tagged human CD137): 0.00071 s⁻¹
kon (Fc tagged human CD137): 460000 M⁻¹ s⁻¹
IC50 (ng/ml) (EC50 in Table 16C), NFkB reporter, HCC827 + IFNg, 24 h, +HSA [1]: 4.42 ng/mL
rel. IC50 (PRO1186/test), 24 h [1]: 1.51 fold
IC50 (ng/ml), NF-AT potency assay, +HSA (human PDL1 on cells): 16.2 ng/mL
rel. IC50 (avelumab/test), +HSA (human PDL1 on cells): 1.45 fold
Kd (human serum albumin): 1 nM
koff (human serum albumin): 0.0003 s⁻¹
kon (human serum albumin): 290000 M⁻¹ s⁻¹
IC50 (biotinylated human PDL1 [2]): 2.42 ng/mL
rel. IC50 (IC50 avelumab/IC50 test) (biotinylated human PDL1 [2]): 1.15 fold
Area under the curve (calculated using PRO885 normalized data), first line (6 h by the order of the upper part) [3]: 196
Area under the curve (calculated using PRO885 normalized data), second line (24 h by the order of the upper part) [3]: 180
EC50 [ng/ml], NF-kB reporter, HCC827 + IFNg, +HSA, 6 h [3]: 9.8 ng/mL
IC10/EC90 ratio, first line (6 h by the order of the upper part) [3]: 72.4
IC10/EC90 ratio, second line (24 h by the order of the upper part) [3]: 1240
Maximum NF-kB activation (rel. to PRO1186) [%], first line (6 h by the order of the upper part) [3]: 110%
Maximum NF-kB activation (rel. to PRO1186) [%], second line (24 h by the order of the upper part) [3]: 98.6%
rel. Area under the curve (AUCsample/AUCPRO1186), first line (6 h by the order of the upper part) [3]: 1.03 fold
rel. Area under the curve (AUCsample/AUCPRO1186), second line (24 h by the order of the upper part) [3]: 0.87 fold
rel. EC50 (EC50, PRO1186/EC50, sample), NF-kB reporter, 6 h [3]: 1.31 fold
rel. EC50 (EC50, PRO1186/EC50, sample), NF-kB reporter, 24 h [3]: 1.51 fold
rel. IC10/EC90 (ratio of sample/ratio of PRO1186), first line (6 h by the order of the upper part) [3]: 0.22 fold
rel. IC10/EC90 (ratio of sample/ratio of PRO1186), second line (24 h by the order of the upper part) [3]: 3.94 fold
IC50 (biotinylated human PDL1 [4]): 1.92 ng/mL
rel. IC50 (IC50 avelumab/IC50 test) (biotinylated human PDL1 [4]): 0.73 fold

B3: PRO1134 (bispecific antibody)
chain: DIQMTQSPSSLSASVGDAVTITCQASQSINDYLAWYQQKPGKSPKLLIYKASTLASGVPSRFSGSGSGTDFTLTISSLQPEDFATYYCQQGYIITDIDNVFGTGTKVTVLGGGGGSQVQLQESGPGLVKPSETLSLTCKVSGFSFSNSYWICWIRQPPGKGLEWIGCTFVGSSDSTYYANWAKGRVTISVDSSKNQFSLKLSSVTAADTAVYYCARHPSDAVYGYANNLWGQGTLVTVSSGGGGSGGGGSGGGGSGGGGSIQMTQSPSSLSASVGDRVTITCQASQSINNVLAWYQQKPGKAPKLLIYRASTLASGVPSRFSGSGSGTDFTLTISSLQPEDFATYYCQSSYGNYGDFGTGTKVTVLGGGGGSEVQLVESGGGLVQPGGSLRLSCAASGFSFSSGYDMCWVRQAPGKGLEWVGCVVAGSVDITYYASWAKGRFTISRDNSKNTVYLQMNSLRAEDTATYYCARKDAYSDAFNLWGPGTLVTVSS
notes: scDb; also called 38-02-A04 sc01 scDb-i/33-03-G02 sc07 GL VH3 scDb-o
Kd [5]: 420 nM
koff (Fc tagged human PDL1): 7.6e-05 s⁻¹
kon (Fc tagged human PDL1): 2.8e+06 M⁻¹ s⁻¹
Kd (Fc tagged human CD137): 3.4 nM
koff (Fc tagged human CD137): 0.00084 s⁻¹
kon (Fc tagged human CD137): 250000 M⁻¹ s⁻¹

B4: PRO1125 (bispecific antibody)
chain: DIQMTQSPSSLSASVGDRVTITCQASQSINDYLAWYQQKPGKSPKLLIYKASTLASGVPSRFSGSGSGTDFTLTISSLQPEDFATYYCQQGYIITDIDNVFGTGTKVTVLGGGGGSQVQLQESGPGLVKPSETLSLTCKVSGFSFSNSYWICWIRQPPGKGLEWIGCTFVGSSDSTYYANWAKGRVTISVDSSKNQFSLKLSSVTAADTAVYYCARHPSDAVYGYANNLWGQGTLVTVSSGGGGSGGGGSGGGGSGGGGSIQMTQSPSSLSASVGDRVTITCQASQSINNVLAWYQQKPGKAPKLLIYRASTLASGVPSRFSGSGSGTDFTLTISSLQPEDFATYYCQSSYGNYGDFGTGTKVTVLGGGGGSQVQLQESGPGLVKPSETLSLTCKVSGFSFSSGYDMCWVRQPPGKGLEWIACVVAGSVDITYYASWAKGRVTISVDSSKNQFSLKLSSVTAADTAVYFCARKDAYSDAFNLWGQGTLVTVSS
notes: scDb; also called 38-02-A04 sc01 scDb-i/33-03-G02 sc02 IF scDb-o
Kd [5]: 510 nM
koff [5]: 0.27 s⁻¹
Kd (Fc tagged human PDL1): 0.067 nM
koff (Fc tagged human PDL1): 0.00011 s⁻¹
kon (Fc tagged human PDL1): 1.7e+06 M⁻¹ s⁻¹
Kd (Fc tagged human CD137): 3.7 nM
kon (Fc tagged human CD137): 200000 M⁻¹ s⁻¹
